Biological target: Leishmania tarentolae propionyl-CoA carboxylase (LtPCC) β-subunit (Leishmania tarentolae (endogenous in L. tarentolae cells))
Assay: cryo-EM structure; endogenous LtPCC complexes from streptavidin pull-down, in 20 mM Tris-HCl pH 7.5, 60 mM KCl, 5 mM MgCl2, 1 mM DTT, 5 mM OG; α6β6 map with D3 symmetry at 3.2 Å, α5β6 (8.6 Å) and α4β6 (10.3 Å) maps with C1 symmetry

Substance: Leishmania tarentolae propionyl-CoA carboxylase (LtPCC) β-subunit (natural protein)
- stoichiometry N: 6
